Measurements published in patent US20200031919A1 (SUZHOU KANOVA BIOPHARMACEUTICAL, published 2020).
Numbering of substitutions follows the chain as printed. Read-outs that look alike come from different tables or passages of the source.

How the values were obtained:
human IL-17A [1] = molecular target: T1, human IL-17A (human, UniProt Q16552 24-155); test: cell-based or functional assay
T1 sequence (looked up): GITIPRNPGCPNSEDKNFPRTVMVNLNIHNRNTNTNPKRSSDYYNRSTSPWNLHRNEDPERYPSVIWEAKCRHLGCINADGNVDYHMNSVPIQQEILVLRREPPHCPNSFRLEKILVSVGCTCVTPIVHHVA

human IL-17F [2] = molecular target: T2, human IL-17F (human, UniProt Q96PD4 31-163); test: cell-based or functional assay
T2 sequence (looked up): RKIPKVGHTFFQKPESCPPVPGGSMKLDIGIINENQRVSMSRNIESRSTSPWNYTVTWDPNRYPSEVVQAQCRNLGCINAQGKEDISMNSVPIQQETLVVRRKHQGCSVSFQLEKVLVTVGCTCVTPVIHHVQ

IL-17A/F heterodimer [3] = molecular target: T3, IL-17A/F heterodimer (UniProt Q16552 24-155; Q96PD4 31-163, limits assumed); test: cell-based or functional assay
T3 sequence (looked up) 1: T1 sequence (looked up)
T3 sequence (looked up) 2: T2 sequence (looked up)

human IL-17D = molecular target: T4, human IL-17D (human, UniProt Q8TAD2 18-202, limits assumed); test: ELISA, cytokine coated at 2 µg/ml
T4 construct: Commercial recombinant protein
T4 sequence (looked up): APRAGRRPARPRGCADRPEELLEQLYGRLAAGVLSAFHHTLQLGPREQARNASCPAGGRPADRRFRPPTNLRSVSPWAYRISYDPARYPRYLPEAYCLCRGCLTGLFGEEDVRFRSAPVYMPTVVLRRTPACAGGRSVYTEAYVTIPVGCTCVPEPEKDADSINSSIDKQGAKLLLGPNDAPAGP
Experimental: (§1) MaxiSorp 96-well plates (NUNC # 449824, www.thermofisher.com) were coated with 2 μg/ml human IL-17A (Cell Signaling #89285F, www.cellsignal.com), human IL-17F (Cell Signaling #8906LC, www.cellsignal.com), human IL-17B (Peprotech #200-28, www.peprotech.com), human IL-17C (R&D systems #1234-IL-025/CF, www.rndsystems.com), human IL-17D ((Peprotech #200-27, www.peprotech.com), human IL-17E (R&D systems #1258-IL-025/CF, www.rndsystems.com) in 1× PBS (50 μl/well) respectively. Plates were incubated at 4° C. overnight. Coating solution was removed and plates were washed once with 200 μl/well PBST (1× PBS with 0.05% tween-20). Then 200 μl/well blocking buffer (1× PBS with 0.05% tween-20, 3% BSA) was added and incubated at room temperature for 1 hour. Blocking buffer was removed and plates were washed three times with 200 μl/well PBST (1× PBS with 0.05% tween-20). The anti-IL17A/F antibody, hIgG VH1-1/VL5, was diluted to […], 0.000102, 0.000034 μg/ml by 1× PBS and added to the plates (50 μl/well). Plates were incubated at room temperature for 2 hours. Antibodies in the wells were removed and plates were washed three times with 200 μl/well PBST (1× PBS with 0.05% tween-20). Goat anti-human IgG(H&L)—HRP secondary antibody (Jackson Immuno Research #109-035-088, www.jacksonimmuno.com) was diluted 1:5000 in 1× PBS and added to each well (50 μl/well). Plates were incubated at room temperature for 1 hour. Secondary antibody was removed and plates were washed seven times with 200 μl/well PBST (1× PBS with 0.05% tween-20). 50 μl/well TMB (eBioscience # 85-00-4201-56, www.ebioscience.com) was added and plates were incubated at room temperature for several minutes. Then 50 μl/well 2N H₂SO₄ was added to stop the reaction. Plates were read at 450 nm. […] So, the hIgG VH1-1/VL5 antibody has binding specificity to human IL-17A and 17F and has no cross-reactivity to other IL-17 family members.

human IL-17E = molecular target: T5, human IL-17E (human, UniProt Q9H293 33-177); test: ELISA, cytokine coated at 2 µg/ml
T5 construct: Commercial recombinant protein; also called IL-25
T5 sequence (looked up): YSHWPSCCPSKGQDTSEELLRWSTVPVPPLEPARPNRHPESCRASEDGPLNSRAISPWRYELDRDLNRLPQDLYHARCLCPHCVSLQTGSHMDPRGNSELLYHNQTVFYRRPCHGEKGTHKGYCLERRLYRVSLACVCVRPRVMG
Experimental: as §1

human IL-17B = molecular target: T6, human IL-17B (human, UniProt Q9UHF5 21-180); test: ELISA, cytokine coated at 2 µg/ml
T6 construct: Commercial recombinant protein
T6 sequence (looked up): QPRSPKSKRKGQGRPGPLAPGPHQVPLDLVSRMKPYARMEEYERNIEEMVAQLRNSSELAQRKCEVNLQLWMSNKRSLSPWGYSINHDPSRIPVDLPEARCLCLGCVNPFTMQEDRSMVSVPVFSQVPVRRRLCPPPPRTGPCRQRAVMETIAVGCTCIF
Experimental: as §1

human IL-17C = molecular target: T7, human IL-17C (human, UniProt Q9P0M4 19-197); test: ELISA, cytokine coated at 2 µg/ml
T7 construct: Commercial recombinant protein
T7 sequence (looked up): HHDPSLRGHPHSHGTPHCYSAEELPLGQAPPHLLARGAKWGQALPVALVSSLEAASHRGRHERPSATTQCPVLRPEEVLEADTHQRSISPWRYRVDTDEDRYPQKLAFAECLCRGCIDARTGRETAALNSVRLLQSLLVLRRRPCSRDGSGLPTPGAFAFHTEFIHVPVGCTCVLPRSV
Experimental: as §1

human IL-17A [4] = molecular target: T1, human IL-17A; test: ELISA, human IL-17A coated at 2 µg/ml
Experimental: (§2) MaxiSorp 96-well plates (NUNC # 449824, www.thermofisher.com) were coated with 2 μg/ml human IL-17A (Cell Signaling #89285F, www.cellsignal.com), human IL-17F (Cell Signaling #8906LC, www.cellsignal.com), human IL-17B (Peprotech #200-28, www.peprotech.com), human IL-17C (R&D systems #1234-IL-025/CF, www.rndsystems.com), human IL-17D ((Peprotech #200-27, www.peprotech.com), human IL-17E (R&D systems #1258-IL-025/CF, www.rndsystems.com) in 1× PBS (50 μl/well) respectively. Plates were incubated at 4° C. overnight. Coating solution was removed and plates were washed once with 200 μl/well PBST (1× PBS with 0.05% tween-20). Then 200 μl/well blocking buffer (1× PBS with 0.05% tween-20, 3% BSA) was added and incubated at room temperature for 1 hour. Blocking buffer was removed and plates were washed three times with 200 μl/well PBST (1× PBS with 0.05% tween-20). The anti-IL17A/F antibody, hIgG VH1-1/VL5, was diluted to 10, 3.33, 1.11, 0.37, 0.123, 0.041, 0.0137, 0.0046, 0.0015, 0.00031, 0.000102, 0.000034 μg/ml by 1× PBS and added to the plates (50 μl/well). Plates were incubated at room temperature for 2 hours. Antibodies in the wells were removed and plates were washed three times with 200 μl/well PBST (1× PBS with 0.05% tween-20). […] Plates were read at 450 nm. […]

human IL-17F [5] = molecular target: T2, human IL-17F; test: ELISA, human IL-17F coated at 2 µg/ml
Experimental: as §2

human IL-17A [6] = molecular target: T1, human IL-17A; test: ELISA, human IL-17A coated at 2 µg/ml; remark: listed apart in the source
Experimental: as §2

human IL-17F [7] = molecular target: T2, human IL-17F; test: ELISA, human IL-17F coated at 2 µg/ml; remark: listed apart in the source
Experimental: as §2

cynomolgus IL-17A = molecular target: T8, cynomolgus IL-17A (cynomolgus, UniProt A0A2K5TTB0 24-155); test: ELISA, cynomolgus IL-17A coated at 2 µg/ml
T8 sequence: T1 sequence (looked up) with T3A, P8S, N34S, I77V, N78K, P104R
Experimental: (§3) Human IgG1 (hIgG1) was used as a control antibody. EC50 values were calculated by GraphPad Prism.
(§4) The binding of anti-IL-17A/F antibody to cynomolgus IL-17A and IL-17F was determined by ELISA. Assay was performed in the same method of Example 7, except that cynomolgus IL-17A (Gene ID: XM 005552759.2, in-house production according to standard molecular biology method, Carson S, Molecular Biology Techniques, 2012) and IL-17F (Gene ID: XM_005552757.2, in-house production according to standard molecular biology method, Carson S, Molecular Biology Techniques, 2012) were used to replace human IL-17A and F, respectively.

cynomolgus IL-17F = molecular target: T9, cynomolgus IL-17F (cynomolgus, UniProt G7P4V0 31-163); test: ELISA, cynomolgus IL-17F coated at 2 µg/ml
T9 construct: also called cynomolgus 17F
T9 sequence: T2 sequence (looked up) with G22E, I29T, R73K, N74H, V100L, I129V
Experimental: as §3, §4

human IL-17A [8] = molecular target: T1, human IL-17A; test: SPR (Biacore T200), antibody captured by anti-human Fc, IL-17 as analyte
Experimental: Anti-human Fc gamma specific antibody (Jackson Immuno Research, Lot no. 124448, Code. 109-008-098) was immobilized onto the sensor chip using amine coupling method. Four antibodies secreted to the culture medium plus the parental antibody were injected and captured by anti-human Fc antibody via Fc (capture phase) individually. After equilibration, IL-17 was injected for 300 seconds (association phase) followed by the injection of running buffer for 1200s (dissociation phase). Responses of reference flow cell (flow cell 1) were subtracted from those of humanized antibodies flow cells during each cycle. The surface was regenerated before the injection of another humanized antibody. The process was repeated until all antibodies are analyzed. The off-rates of humanized antibodies were obtained from fitting the experimental data locally to 1:1 interaction model using the Biacore T200 evaluation software. The antibodies were ranked by their dissociation rate constants (off-rates, Kd). The binders that interact with IL-17 with similar affinity to parental antibody were selected.

human IL-17A [9] = molecular target: T1, human IL-17A; test: blocking ELISA: 0.5 ug/ml hIL-17A coated, antibody titrated, then 10 ug/ml hIL17RA-mIgG2aFc (blocked ligand partner); OD450 falls from about 1.3 to a lower plateau of about 0.67
Experimental: (§5) The effect of the anti-IL17A/F antibody (produced in Example 2) on the binding of IL-17A, IL-17F or IL17A/F to the IL-17 receptor was tested by ELISA. IL-17A, IL-17F or IL-17A/F was coated in 96 well plate with 50 μl/well protein solution (protein concentration was […]) at 4° C. overnight. The wells were blocked with 1% BSA in PBST (tween 0.05%) by 200 μl/well at room temperature for 1 hour. The wells were washed 3 times with PBST. The anti-IL17A/F antibody and isotype control antibody human IgG1 (Biolegend cat# 403102) were diluted by PBS from 30 μg/ml down to 0.0005 μg/ml ([…]). The antibodies were added into the corresponding wells (50 μl/well) and incubated at room temperature for 4 hours. The wells were washed 3 times with PBST. hIL17RA-mIgG2aFc (10 μg/ml, in-house production according to standard molecular biology technology, Carson S, Molecular Biology Techniques, 2012) were added into each well (50 μl/well) and incubated at room temperature for 1 hour. The wells were washed 3 times with PBST. Goat anti-human IgG-HRP (1:5000 in PBS, EASYBIO Cat# BE0102) were added into each well (50 μl/well) and incubated at room temperature for 30 min. The wells were washed 6 times with PBST. […] The plate was read at 450 nm and 570 nm.

human IL-17F [10] = molecular target: T2, human IL-17F; test: blocking ELISA: 0.5 ug/ml hIL-17F coated, antibody titrated, then 10 ug/ml hIL17RA-mIgG2aFc (blocked ligand partner); OD450 falls from about 1.35 to a lower plateau of about 0.87
Experimental: as §5

IL-17A/F heterodimer [11] = molecular target: T3, IL-17A/F heterodimer; test: blocking ELISA: 0.5 ug/ml hIL-17A/F heterodimer coated, antibody titrated, then 10 ug/ml hIL17RA-mIgG2aFc (blocked ligand partner); OD450 falls from about 1.9 to a lower plateau of about 0.6
Experimental: as §5

B1: anti-IL17A/F antibody hIgG VH1-1/VL5 (antibody, V domains shown)
VH: QFQLVQSGAEVKKPGASVKVSCKASGYTFTDYNLNWVRQAPGKGLEWMGVIHPDYGTTSYNQKFKDRVTMTVDTSTSTVYMELSSLRSEDTAVYYCVRYDYGDAMDYWGQGTLVTVSS
VL: DIVMTQSPLSLSVTPGQPASISCRSSQSLVHSNGNTYLHWYLQKPGQPPQLLIYKVSNRFSGVPDRFSGSGSGTDFTLKISRVEAEDVGVYYCSQSTHVPLTFGQGTKLEIKR
notes: also called VH1-1/VL5 mAb; hIgGc VH1-1/VL5
B1 was tested, and the “IC50 of inhibition of IL-17A-induced IL-6 production in HFF-1 cells” value (human IL-17A [1]) was 1730 pM, the “IC50 of inhibition of IL-17F-induced IL-6 production in HFF-1 cells” value (human IL-17F [2]) was 1770 pM and the “IC50 of inhibition of IL-17A/F heterodimer-induced IL-6 production in HFF-1 cells” value (IL-17A/F heterodimer [3]) was 990 pM. B1: no binding (human IL-17D); no binding (human IL-17E); no binding (human IL-17B). For the same binder, the binding result (human IL-17C) was “no binding”, the EC50 (human IL-17A [4]) was 39 pM and the EC50 (human IL-17F [5]) was 42 pM. The EC50 (human IL-17A [6]) was 46 pM, the EC50 (human IL-17F [7]) was 47 pM and the EC50 (cynomolgus IL-17A) was 60 pM. The EC50 (cynomolgus IL-17F) was 180 pM, the Kd (human IL-17A [8]) was 290 pM and the koff (human IL-17A [8]) was 0.00059 s⁻¹. The kon (human IL-17A [8]) was 2e+06 M⁻¹ s⁻¹, the IC50 (human IL-17A [9]) was 720 pM and the IC50 (human IL-17F [10]) was 670 pM. For the same binder, the IC50 (IL-17A/F heterodimer [11]) was 450 pM.
